T1: FcγRIIa H (human, UniProt P12318 34-217)
T1 construct: extracellular domain; Soluble extracellular domain with C-terminal His tag, expressed in FreeStyle293 cells; also called FcgRIIa H; 2aH; not shown: C-terminal His tag
T1 sequence (looked up): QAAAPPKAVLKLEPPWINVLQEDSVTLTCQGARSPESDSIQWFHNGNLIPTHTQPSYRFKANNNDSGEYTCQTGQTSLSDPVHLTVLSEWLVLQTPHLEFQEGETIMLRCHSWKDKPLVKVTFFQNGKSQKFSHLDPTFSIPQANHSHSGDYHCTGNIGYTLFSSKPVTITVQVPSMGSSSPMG

T2: FcγRIIb (human, UniProt P31994 43-217)
T2 construct: extracellular domain; Soluble extracellular domain with C-terminal His tag, expressed in FreeStyle293 cells; also called FcgRIIb; 2b; not shown: C-terminal His tag
T2 sequence (looked up): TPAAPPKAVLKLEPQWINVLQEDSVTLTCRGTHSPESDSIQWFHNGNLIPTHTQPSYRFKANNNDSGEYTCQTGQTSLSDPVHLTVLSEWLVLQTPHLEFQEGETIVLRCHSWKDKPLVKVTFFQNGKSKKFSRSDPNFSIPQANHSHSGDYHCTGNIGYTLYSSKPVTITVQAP


Legend:
[1] = target: T1, FcγRIIa H; assay: SPR (Biacore), antibody captured, FcγR as analyte; relative to HeCon Ab
Description: (§1) The heterodimerized antibodies He Abs in which one of the H chains was introduced with an alteration were assayed for their binding activities to each activating FcγR and inhibitory FcγR according to the method described in Example 4. […] The activating FcγRs in FIGS. 26, 27, 28, and 29 are FcγRIa, FcγRIIa (R), FcγRIIa (H), and FcγRIIIa, respectively.
(§2) Analysis of interaction between objective antibody and the FcγR was carried out using Biacore T100 (GE Healthcare). HBS-EP+ (GE Healthcare) was used as the running buffer, and the measurement temperature was set to 25° C. Chips produced by immobilizing the antigen peptide by the amine coupling method to a Series S Sencor Chip CM5 (GE Healthcare), or alternatively, chips produced by allowing preliminarily biotinylated antigen peptides to interact with and immobilize onto a Series S Sensor Chip SA (certified) (GE Healthcare) were used. Antibodies of interest were captured onto an antigen peptide-immobilized chip, and allowed to interact to each FcγR diluted with running buffer. To regenerate and repeatedly use the chip, the antibodies captured on the chip were washed off by reacting 10 mM glycine-HCl, pH 1.5.

[2] = target: T2, FcγRIIb; assay: as above
Description: as §1, §2

Binder | He/Con_2aH [1] | He/Con_2b [2]
GpH7-A5/GpH7-B3 variant P238_20W/GpL16-k0 (antibody, human IgG1, kappa, Heterodimerized anti-glypican-3 IgG1; alteration in the GpH7-B3 chain only; also called He Ab) heavy 1: not shown heavy 2: not shown light: DIVMTQSPLSLPVTPGEPASISCQASESLVHSNRNTYLHWYLQKPGQSPQLLIYKVSNRFSGVPDRFSGSGSGTDFTLKISRVEAEDVGVYYCSQNTHVPPTFGQGTKVEIERTVAAPSVFIFPPSDEQLKSGTASVVCLLNNFYPREAKVQWKVDNALQSGNSQESVTEQDSKDSTYSLSSTLTLSKADYEKHKVYACEVTHQGLSSPVTKSFNRGEC | 59.5 % of GpH7-A5/GpH7-B3/GpL16-k0 (=100) | 123 % of GpH7-A5/GpH7-B3/GpL16-k0 (=100)
GpH7-A5/GpH7-B3 variant P238_04F/GpL16-k0 (antibody, human IgG1, kappa, Heterodimerized anti-glypican-3 IgG1; alteration in the GpH7-B3 chain only; also called He Ab) heavy 1: not shown heavy 2: not shown light: DIVMTQSPLSLPVTPGEPASISCQASESLVHSNRNTYLHWYLQKPGQSPQLLIYKVSNRFSGVPDRFSGSGSGTDFTLKISRVEAEDVGVYYCSQNTHVPPTFGQGTKVEIERTVAAPSVFIFPPSDEQLKSGTASVVCLLNNFYPREAKVQWKVDNALQSGNSQESVTEQDSKDSTYSLSSTLTLSKADYEKHKVYACEVTHQGLSSPVTKSFNRGEC | 65.4 % of GpH7-A5/GpH7-B3/GpL16-k0 (=100) | 312 % of GpH7-A5/GpH7-B3/GpL16-k0 (=100)
GpH7-A5/GpH7-B3 variant P238_19Q/GpL16-k0 (antibody, human IgG1, kappa, Heterodimerized anti-glypican-3 IgG1; alteration in the GpH7-B3 chain only; also called He Ab) heavy 1: not shown heavy 2: not shown light: DIVMTQSPLSLPVTPGEPASISCQASESLVHSNRNTYLHWYLQKPGQSPQLLIYKVSNRFSGVPDRFSGSGSGTDFTLKISRVEAEDVGVYYCSQNTHVPPTFGQGTKVEIERTVAAPSVFIFPPSDEQLKSGTASVVCLLNNFYPREAKVQWKVDNALQSGNSQESVTEQDSKDSTYSLSSTLTLSKADYEKHKVYACEVTHQGLSSPVTKSFNRGEC | 56.4 % of GpH7-A5/GpH7-B3/GpL16-k0 (=100) | 110 % of GpH7-A5/GpH7-B3/GpL16-k0 (=100)
GpH7-A5/GpH7-B3 variant G237_04F/GpL16-k0 (antibody, human IgG1, kappa, Heterodimerized anti-glypican-3 IgG1; alteration in the GpH7-B3 chain only; also called He Ab) heavy 1: not shown heavy 2: not shown light: DIVMTQSPLSLPVTPGEPASISCQASESLVHSNRNTYLHWYLQKPGQSPQLLIYKVSNRFSGVPDRFSGSGSGTDFTLKISRVEAEDVGVYYCSQNTHVPPTFGQGTKVEIERTVAAPSVFIFPPSDEQLKSGTASVVCLLNNFYPREAKVQWKVDNALQSGNSQESVTEQDSKDSTYSLSSTLTLSKADYEKHKVYACEVTHQGLSSPVTKSFNRGEC | 41.4 % of GpH7-A5/GpH7-B3/GpL16-k0 (=100) | 149 % of GpH7-A5/GpH7-B3/GpL16-k0 (=100)
GpH7-A5/GpH7-B3 variant S239_03V/GpL16-k0 (antibody, human IgG1, kappa, Heterodimerized anti-glypican-3 IgG1; alteration in the GpH7-B3 chain only; also called He Ab) heavy 1: not shown heavy 2: not shown light: DIVMTQSPLSLPVTPGEPASISCQASESLVHSNRNTYLHWYLQKPGQSPQLLIYKVSNRFSGVPDRFSGSGSGTDFTLKISRVEAEDVGVYYCSQNTHVPPTFGQGTKVEIERTVAAPSVFIFPPSDEQLKSGTASVVCLLNNFYPREAKVQWKVDNALQSGNSQESVTEQDSKDSTYSLSSTLTLSKADYEKHKVYACEVTHQGLSSPVTKSFNRGEC | 91 % of GpH7-A5/GpH7-B3/GpL16-k0 (=100) | 108 % of GpH7-A5/GpH7-B3/GpL16-k0 (=100)
GpH7-A5/GpH7-B3 variant G237_09D/GpL16-k0 (antibody, human IgG1, kappa, Heterodimerized anti-glypican-3 IgG1; alteration in the GpH7-B3 chain only; also called He Ab) heavy 1: not shown heavy 2: not shown light: DIVMTQSPLSLPVTPGEPASISCQASESLVHSNRNTYLHWYLQKPGQSPQLLIYKVSNRFSGVPDRFSGSGSGTDFTLKISRVEAEDVGVYYCSQNTHVPPTFGQGTKVEIERTVAAPSVFIFPPSDEQLKSGTASVVCLLNNFYPREAKVQWKVDNALQSGNSQESVTEQDSKDSTYSLSSTLTLSKADYEKHKVYACEVTHQGLSSPVTKSFNRGEC | 11.1 % of GpH7-A5/GpH7-B3/GpL16-k0 (=100) | 223 % of GpH7-A5/GpH7-B3/GpL16-k0 (=100)
GpH7-A5/GpH7-B3 variant P238_13S/GpL16-k0 (antibody, human IgG1, kappa, Heterodimerized anti-glypican-3 IgG1; alteration in the GpH7-B3 chain only; also called He Ab) heavy 1: not shown heavy 2: not shown light: DIVMTQSPLSLPVTPGEPASISCQASESLVHSNRNTYLHWYLQKPGQSPQLLIYKVSNRFSGVPDRFSGSGSGTDFTLKISRVEAEDVGVYYCSQNTHVPPTFGQGTKVEIERTVAAPSVFIFPPSDEQLKSGTASVVCLLNNFYPREAKVQWKVDNALQSGNSQESVTEQDSKDSTYSLSSTLTLSKADYEKHKVYACEVTHQGLSSPVTKSFNRGEC | 50.9 % of GpH7-A5/GpH7-B3/GpL16-k0 (=100) | 70.4 % of GpH7-A5/GpH7-B3/GpL16-k0 (=100)
GpH7-A5/GpH7-B3 variant S267_08L/GpL16-k0 (antibody, human IgG1, kappa, Heterodimerized anti-glypican-3 IgG1; alteration in the GpH7-B3 chain only; also called He Ab) heavy 1: not shown heavy 2: not shown light: DIVMTQSPLSLPVTPGEPASISCQASESLVHSNRNTYLHWYLQKPGQSPQLLIYKVSNRFSGVPDRFSGSGSGTDFTLKISRVEAEDVGVYYCSQNTHVPPTFGQGTKVEIERTVAAPSVFIFPPSDEQLKSGTASVVCLLNNFYPREAKVQWKVDNALQSGNSQESVTEQDSKDSTYSLSSTLTLSKADYEKHKVYACEVTHQGLSSPVTKSFNRGEC | 29 % of GpH7-A5/GpH7-B3/GpL16-k0 (=100) | 109 % of GpH7-A5/GpH7-B3/GpL16-k0 (=100)
GpH7-A5/GpH7-B3 variant P238_15Y/GpL16-k0 (antibody, human IgG1, kappa, Heterodimerized anti-glypican-3 IgG1; alteration in the GpH7-B3 chain only; also called He Ab) heavy 1: not shown heavy 2: not shown light: DIVMTQSPLSLPVTPGEPASISCQASESLVHSNRNTYLHWYLQKPGQSPQLLIYKVSNRFSGVPDRFSGSGSGTDFTLKISRVEAEDVGVYYCSQNTHVPPTFGQGTKVEIERTVAAPSVFIFPPSDEQLKSGTASVVCLLNNFYPREAKVQWKVDNALQSGNSQESVTEQDSKDSTYSLSSTLTLSKADYEKHKVYACEVTHQGLSSPVTKSFNRGEC | 59.8 % of GpH7-A5/GpH7-B3/GpL16-k0 (=100) | 218 % of GpH7-A5/GpH7-B3/GpL16-k0 (=100)
